# Data taken from patent US9540424B2, “Serum albumin binding molecules” (BRISTOL-MYERS SQUIBB COMPANY, priority 2010, dated 2017).
# B1: SABA1-FGF21v3: SABA1-FGF21 fusion, SEQ ID NO: 134; 299 aa; DNA SEQ ID NO: 177 (protein)
# chain: MGVSDVPRDLEVVAATPTSLLISWHSYYEQNSYYRITYGETGGNSPVQEFTVPYSQTTATISGLKPGVDYTITVYAVYGSKYYYPISINYRTEIDKPSQHHHHHHGSGSGSGSGSGSGSPIPDSSPLLQFGGQVRQRYLYTDDAQQTEAHLEIREDGTVGGAADQSPESLLQLKALKPGVIQILGVKTSRFLCQRPDGALYGSLHFDPEACSFRELLLEDGYNVYQSEAHGLPLHLPGNKSPHRDPAPRGPARFLPLPGLPPALPEPPGILAPQPPDVGSSDPLSMVGPSQGRSPSYAS
# Columns and labels:
# [1] = tested on: HEK cells stably expressing human β-klotho; test: HEK β-Klotho pERK 1/2 assay; assay type: cell-based; settings: same dilutions as in parental HEK cells
# Protocol: FGF21 induces ERK phosphorylation in the presence of β-klotho. Accordingly, the present HEK-β-klotho assay system was constructed to examine the functional activity of the FGF21-SABA fusions in vitro. Specifically, in vitro activity, potency (EC50) and efficacy (as a percentage of maximal activity observed from an FGF21 molecule that is not fused to a SABA), were determined for the SABA1-FGF21v1 (SEQ ID NO: 132) fusion protein, as measured in the HEK β-Klotho expressing stable cell pERK 1/2 assay using the non-fused His-tagged FGF21 (“FGFv1”; SEQ ID NO: 125) as a comparator.
# A HEK cell line stably expressing human β-klotho was constructed. The human β-klotho construct encoded the full length protein under the control of a CMV promoter with a C-terminal FLAG tag. HEK 293 cells were transfected with the linearized cDNA using Lipofectamine 2000 (Invitrogen catalog #11668027) following the manufactures protocol using standard techniques. Positive clones were isolated after 14 days of selection in 600 ug/ml (Invitrogen catalog #10131) of geneticin in Dulbecco's Modified Eagle Medium with high glucose containing L-Glutamine, Hepes (Invitrogen catalog #12430054) and 10% FBS (HyClone catalog # SH30071). Positive stable clones were further characterized by Western Blot analysis and p-ERK activation by AlphaScreen (Perkin Elmer catalog # TGRES50K) analysis.
# HEK cells stably expressing human β-klotho were plated at 20,000 cells/well in 96 well tissue culture plates in DMEM high glucose media (Gibco) containing 10% (v/v) FBS (Hyclone) and 600 μg/ml G418 (Gibco). The following day, the media was removed and replaced with DMEM high glucose media without serum and the cells were incubated overnight. The morning of the third day the serum free media was removed and the cells were incubated for a total of seven minutes with dilutions of the proteins made in PBS containing 3% (w/v) fatty acid free human serum albumin. Dilutions were tested in triplicate, one well on each of three plates. At the end of the seven minute incubation, the protein dilutions were removed and 100 μl of 1x AlphaScreen lysis buffer (Perkin-Elmer) was added per well and allowed to incubate with shaking for approximately 10-15 minutes. The plates containing the cellular lysates were frozen at −80° C. for at least 30 minutes or until ready to assay. Four μl from each well of thawed cell lysate was analyzed for pERK 1/2 using the Surefire AlphaScreen pERK 1/2 kit (Perkin Elmer) using 384 well white Proxiplates (Perkin Elmer) following the manufacturer's directions. Plates were incubated at room temperature for two hours in the dark and then read on an Envision 2103 Multiplate reader (Perkin Elmer). Data were analyzed using Graph Pad Prism software using a non-linear regression analysis.
# [2] = tested on: parental HEK cells, which do not express β-klotho; test: pERK 1/2 specificity assay in parental HEK cells; assay type: cell-based, human
# Excerpt: FGF1 was used as a positive control in those experiments.
# HSA = HSA (Homo sapiens, UniProt P02768); test: SPR (Biacore T100) kinetics of FGF21-SABA1 fusions: HSA; assay type: binding; settings: 37° C.
# Protocol: (§1) The binding competency and thermodynamic characterization of FGF21-SABA fusion variants to human serum albumin were performed using Isothermal Titration calorimetry on a Microcal VP-ITC instrument (Microcal Inc. Amherst Mass., USA). […] The detailed experimental conditions are described below.
# (§2) For the calorimetry assay, the FGF21-SABA variant SABA1-FGF21v1 (SEQ ID NO: 132) was used. […] For the SPR studies, SABA1-FGF21v1 and SABA1-FGF21v3 (SEQ ID NO: 134) were examined.
# (§3) Serum albumins were dissolved in PBS buffer (10 mM sodium phosphate, 130 mM sodium chloride, pH 7.1) to a concentration of 10 mg/ml, and subsequently diluted to 8-10 μg/ml in 10 mM sodium acetate pH 5.0 for immobilization. Serum albumins were immobilized on a Series S CMS sensor chip using standard ethyl(dimethylaminopropyl) carbodiimide (EDC)/N-hydroxysuccinimide (NHS) chemistry in HBS-EP+ running buffer at 25° C., following general manufacturer guidelines. Flow cell 1 was activated with EDC/NHS and blocked with ethanolamine. […] Kinetic experiments were performed in PBS buffer containing 0.05% tween-20 (running buffer) at either 25° C. or 37° C. […] These samples were injected across flow cells 1-4 for 300 s, with a 420 s dissociation time, at flow rates of 30 μl/min or 60 μl/min to check for mass transfer limitation. All surfaces were regenerated with 2 pulses of 10 mM glycine pH 2.0 at 30 μl/min for 30 s. Raw sensograms were “double-referenced” by subtracting flow cell 1 data from flow cell 2, 3 or 4 data, and then subtracting a separate buffer cycle from each sensogram. The double-referenced sensogram data was fitted to a 1:1 Langmuir model using Biacore T100 Evaluation software version 2.0.2 to determine the association rate constant (ka), the dissociation rate constant (kd), and the equilibrium dissociation constant (KD).
# CySA = biological target: T1, CySA (Macaca fascicularis, UniProt A2V9Z4); test: SPR (Biacore T100) kinetics of FGF21-SABA1 fusions: CySA; assay type: binding, cynomolgous monkey; settings: 37° C.
# T1 construct: purchased Equitech-Bio CMSA
# Protocol: as §1, §2, §3
# [3] = Pharmacokinetics of His-tagged FGF21 and SABA-FGF21 fusions in monkeys; assay type: in vivo, cynomolgus monkeys; settings: monkeys
# Protocol: Various in vivo studies were conducted in mice and monkeys to characterize the pharmacokinetics of His-tagged FGF21 and SABA1-FGF21v1. An ELISA-based ligand binding assay was used to measure the His-tagged FGF21 and SABA1-FGF21v1 in all mouse and monkey plasma samples.
# Following subcutaneous administration, His-tagged FGF21 was well absorbed.
# Following subcutaneous administration, SABA1-FGF21v1 was well absorbed.
# MuSA = MuSA (Mus musculus, UniProt P07724); test: SPR (Biacore T100) kinetics of FGF21-SABA1 fusions: MuSA; assay type: binding, murine; parameters: purchased Sigma A3559; settings: 37° C., up to 1 uM analyte
# Protocol: as §1, §2, §3
# [4] = intravenous, His-tagged FGF21 0.5 mg/kg, SABA1-FGF21v1 0.08 mg/kg
# T1 sequence (A2V9Z4 25-608): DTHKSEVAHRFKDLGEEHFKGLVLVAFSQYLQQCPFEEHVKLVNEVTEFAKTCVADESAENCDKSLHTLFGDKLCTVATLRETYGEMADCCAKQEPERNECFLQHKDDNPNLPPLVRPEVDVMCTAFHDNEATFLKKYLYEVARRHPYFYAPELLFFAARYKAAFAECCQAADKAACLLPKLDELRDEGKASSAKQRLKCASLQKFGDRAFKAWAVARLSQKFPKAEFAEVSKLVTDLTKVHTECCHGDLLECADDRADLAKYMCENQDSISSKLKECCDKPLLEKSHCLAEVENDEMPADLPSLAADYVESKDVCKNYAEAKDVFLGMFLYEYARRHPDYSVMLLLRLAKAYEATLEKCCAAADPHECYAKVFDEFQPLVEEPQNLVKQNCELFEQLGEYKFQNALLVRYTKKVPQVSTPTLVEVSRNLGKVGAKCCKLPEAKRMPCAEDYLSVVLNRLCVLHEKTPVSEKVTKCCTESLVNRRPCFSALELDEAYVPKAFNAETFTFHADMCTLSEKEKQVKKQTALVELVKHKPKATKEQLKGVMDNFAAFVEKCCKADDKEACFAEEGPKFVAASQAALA
# MuSA, sequence (P07724 25-608): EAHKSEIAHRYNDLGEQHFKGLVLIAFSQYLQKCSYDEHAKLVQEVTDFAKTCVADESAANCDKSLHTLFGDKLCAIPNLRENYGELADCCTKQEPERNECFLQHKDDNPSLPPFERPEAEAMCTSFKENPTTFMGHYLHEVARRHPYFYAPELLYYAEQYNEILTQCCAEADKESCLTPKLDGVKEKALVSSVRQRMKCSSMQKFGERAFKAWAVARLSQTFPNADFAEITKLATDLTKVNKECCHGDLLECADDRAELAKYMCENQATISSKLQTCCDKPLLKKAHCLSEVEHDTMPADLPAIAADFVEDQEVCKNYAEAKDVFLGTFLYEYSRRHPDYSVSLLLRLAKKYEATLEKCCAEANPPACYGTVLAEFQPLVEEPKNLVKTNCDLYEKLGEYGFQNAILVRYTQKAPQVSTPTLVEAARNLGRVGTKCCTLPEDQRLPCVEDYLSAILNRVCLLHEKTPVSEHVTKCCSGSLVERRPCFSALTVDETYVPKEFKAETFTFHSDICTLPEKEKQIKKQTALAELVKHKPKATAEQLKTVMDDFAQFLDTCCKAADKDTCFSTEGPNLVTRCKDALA
Molecule,activity in HEK β-klotho stable cells (specificity experiment) [1],stimulation of pERK 1/2 levels in parental HEK cells [2],ka (HSA; flow rate 30 μl/min) [M⁻¹ s⁻¹],kd (HSA; flow rate 30 μl/min) [s⁻¹],ka (HSA; flow rate 60 μl/min) [M⁻¹ s⁻¹],kd (HSA; flow rate 60 μl/min) [s⁻¹],ka (CySA; flow rate 30 μl/min) [M⁻¹ s⁻¹],kd (CySA; flow rate 30 μl/min) [s⁻¹],ka (CySA; flow rate 60 μl/min) [M⁻¹ s⁻¹],kd (CySA; flow rate 60 μl/min) [s⁻¹],increase of t1/2 compared to His-tagged FGF21 [3] [fold],"CL (total body plasma clearance, CLTp) [3, 4] [mL/h/kg]","T½ (terminal half-life) [3, 4] [h]","Vdss (steady-state volume of distribution, Vss) [3, 4] [L/kg]",binding to MuSA (MuSA; flow rate 30 μl/min),binding to MuSA (MuSA; flow rate 60 μl/min)
FGF1: positive control in the pERK specificity assays [reference compound],showed activity,did,–,–,–,–,–,–,–,–,–,–,–,–,–,–
B1,–,–,6160,0.00103,5870,0.00107,5310,0.0117,4380,0.0136,~27,2.4,52.7,0.11,no binding observed up,no binding observed up
